Assay [1] addresses T1, human plasma kallikrein (PKal) (human, UniProt P03952 20-638).
T1 construct: Active PKal is cleaved at the marked R/I site into two disulfide-linked chains; also called human Pkal; active PKal
Put plainly: Ki,app; Fab inhibition of PKal cleavage of a substrate peptide, Morrison fit. As for the experimental part: (§1) Briefly, PKal and a Fab at various concentrations are incubated together for 1 hour at 30° C. A substrate peptide (cleavable by PKal) is then added to this PKal-Fab mixture. The rate of substrate peptide cleavage/proteolysis is then measured, and plotted against the concentrations of the Fab. This plot is then fit to the Morrison equation, which calculates the K_{i,app} value. The results thus obtained are shown in FIGS. 5A-5D and Table 3 below: […]

Assay [2] has as its target T1, human plasma kallikrein (PKal). Put plainly: enzyme inhibition assay: rate (F/s) of substrate peptide cleavage by PKal against [Fab] (nM), fitted to the Morrison equation; apparent Ki (Ki,app); Table 3 prints it rounded, 1405.6 nM.
Assay [3] has the same target. Put plainly: enzyme inhibition assay: rate (F/s) of substrate peptide cleavage by PKal against [Fab] (nM), fitted to the Morrison equation; apparent Ki (Ki,app); Table 3 prints 1.1 nM. The procedure: as §1
Assay [4] has the same target. Put plainly: enzyme inhibition assay: rate (F/s) of substrate peptide cleavage by PKal against [2930] (pM), fitted to the Morrison equation; apparent Ki (Ki,app); no unit stands beside the value, pM is the unit of the concentration axis; Table 3 prints 0.06 nM. The procedure: as §1
Assay [5] has the same target. The experiment in a line: enzyme inhibition assay: rate (F/s) of substrate peptide cleavage by PKal against [Fab] (nM), fitted to the Morrison equation; apparent Ki (Ki,app); Table 3 prints it rounded, 2.2 nM. The procedure: as §1

T1 sequence (P03952 20-638 limits assumed): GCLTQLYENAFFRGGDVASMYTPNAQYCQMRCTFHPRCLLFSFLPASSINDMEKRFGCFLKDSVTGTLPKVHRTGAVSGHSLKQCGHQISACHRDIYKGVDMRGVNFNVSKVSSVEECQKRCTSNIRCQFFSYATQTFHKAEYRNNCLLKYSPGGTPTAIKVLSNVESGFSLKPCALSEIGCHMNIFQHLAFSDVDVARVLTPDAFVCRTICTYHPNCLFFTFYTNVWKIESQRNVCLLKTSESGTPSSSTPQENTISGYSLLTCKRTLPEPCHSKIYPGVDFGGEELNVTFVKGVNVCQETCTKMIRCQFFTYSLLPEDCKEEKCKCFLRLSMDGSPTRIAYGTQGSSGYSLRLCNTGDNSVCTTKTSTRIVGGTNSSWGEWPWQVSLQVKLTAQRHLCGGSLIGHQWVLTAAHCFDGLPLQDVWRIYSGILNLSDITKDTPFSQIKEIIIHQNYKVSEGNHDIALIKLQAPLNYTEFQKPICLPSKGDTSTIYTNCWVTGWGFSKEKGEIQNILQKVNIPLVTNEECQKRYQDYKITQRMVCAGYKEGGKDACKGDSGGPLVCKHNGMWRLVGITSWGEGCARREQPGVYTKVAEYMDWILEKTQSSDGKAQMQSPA

B1: X133-G05 (Fab, V domains shown)
VH: EVQLLESGGGLVQPGGSLRLSCAASGFTFSHYIMMWVRQAPGKGLEWVSGIYSSGGITVYADSVKGRFTISRDNSKNTLYLQMNSLRAEDTAVYYCAYRRTGSPRRDAFDIWGQGTMVTVSS
VL: DIQMTQSPSTLSASVGDRVTITCRASQSISSWLAWYQQKPGKAPNLLIYKASTLESGVPSRFSGSGSGTEFTLTISSLQPDDFATYYCQQYNTYWTFGQGTKVEIK
Turning to B1, the Ki in assay [1] and in assay [2] was 1410 nM throughout.

B2: M0202-D09 (Fab, V domains shown)
VH: EVQLLESGGGLVQPGGSLRLSCAASGFTFSHYIMMWVRQAPGKGLEWVSGIYSSGGITVYADSVKGRFTISRDNSKNTLYLQMNSLRAEDTAVYYCAYRRIGVPRRDSFDIWGQGTMVTVSS
VL: DIQMTQSPSTLSASVGDRVTITCRASQSISSWLAWYQQKPGKAPNLLIYKASTLESGVPSRFSGSGSGTEFTLTISSLQPDDFATYYCQQYNTYWTFGQGTKVEIK
B2 came in with a Ki in assay [1] of 0.2 nM.

B3: M0202-E03 (Fab, V domains shown)
VH: EVQLLESGGGLVQPGGSLRLSCAASGFTFSHYIMMWVRQAPGKGLEWVSGIYSSGGITVYADSVKGRFTISRDNSKNTLYLQMNSLRAEDTAVYYCAYRRTGIPRRDAFEIWGQGTMVTVSS
VL: DIQMTQSPSTLSASVGDRVTITCRASQSISSWLAWYQQKPGKAPNLLIYKASTLESGVPSRFSGSGSGTEFTLTISSLQPDDFATYYCQQYNTYWTFGQGTKVEIK
B3 displayed a Ki in assay [1] of 2 nM.

B4: M0202-009 (Fab, V domains shown)
VH: EVQLLESGGGLVQPGGSLRLSCAASGFTFSHYIMMWVRQAPGKGLEWVSGIYSSGGITVYADSVKGRFTISRDNSKNTLYLQMNSLRAEDTAVYYCAYRRIGVPRRDDFDIWGQGTMVTVSS
VL: DIQMTQSPSTLSASVGDRVTITCRASQSISSWLAWYQQKPGKAPNLLIYKASTLESGVPSRFSGSGSGTEFTLTISSLQPDDFATYYCQQYNTYWTFGQGTKVEIK
In assay [1], B4 displayed a Ki of 0.06 nM.

B5: M0202-E06 (Fab, V domains shown)
VH: EVQLLESGGGLVQPGGSLRLSCAASGFTFSHYIMMWVRQAPGKGLEWVSGIYSSGGITVYADSVKGRFTISRDNSKNTLYLQMNSLRAEDTAVYYCAYRRRGVPRRDDFDIWGQGTMVTVSS
VL: DIQMTQSPSTLSASVGDRVTITCRASQSISSWLAWYQQKPGKAPNLLIYKASTLESGVPSRFSGSGSGTEFTLTISSLQPDDFATYYCQQYNTYWTFGQGTKVEIK
Molecule B5 displayed a Ki in assay [1] of 0.06 nM.

B6: M0200-B01 (Fab, V domains shown)
VH: EVQLLESGGGLVQPGGSLRLSCAASGFTFSHYIMMWVRQAPGKGLEWVSGIYSSGGITVYADSVKGRFTISRDNSKNTLYLQMNSLRAEDTAVYYCAYRRTGIPRRDAFDSWGQGTMVTVSS
VL: DIQMTQSPSTLSASVGDRVTITCRASQSISSWLAWYQQKPGKAPNLLIYKASTLESGVPSRFSGSGSGTEFTLTISSLQPDDFATYYCQQYNTYWTFGQGTKVEIK
In the case of B6, the Ki in assay [1] turned out to be 3.6 nM.

B7: M0199-B01 (Fab, V domains shown)
VH: EVQLLESGGGLVQPGGSLRLSCAASGFTFSHYIMMWVRQAPGKGLEWVSGIYSSGGITVYADSVKGRFTISRDNSKNTLYLQMNSLRAEDTAVYYCAYRRTGIPRRDAFDNWGQGTMVTVSS
VL: DIQMTQSPSTLSASVGDRVTITCRASQSISSWLAWYQQKPGKAPNLLIYKASTLESGVPSRFSGSGSGTEFTLTISSLQPDDFATYYCQQYNTYWTFGQGTKVEIK
Molecule B7 displayed a Ki in assay [1] of 1.6 nM.

B8: M0201-F11 (Fab, V domains shown)
VH: EVQLLESGGGLVQPGGSLRLSCAASGFTFSHYIMMWVRQAPGKGLEWVSGIYSSGGITVYADSVKGRFTISRDNSKNTLYLQMNSLRAEDTAVYYCAYRRSGIPRRDAFDIWGQGTMVTVSS
VL: DIQMTQSPSTLSASVGDRVTITCRASQSISSWLAWYQQKPGKAPNLLIYKASTLESGVPSRFSGSGSGTEFTLTISSLQPDDFATYYCQQYNTYWTFGQGTKVEIK
As for B8, the Ki in assay [1] worked out at 3 nM.

B9: M0202-A08 (Fab, V domains shown)
VH: EVQLLESGGGLVQPGGSLRLSCAASGFTFSHYIMMWVRQAPGKGLEWVSGIYSSGGITVYADSVKGRFTISRDNSKNTLYLQMNSLRAEDTAVYYCAYRRTGIPRWDAFDIWGQGTMVTVSS
VL: DIQMTQSPSTLSASVGDRVTITCRASQSISSWLAWYQQKPGKAPNLLIYKASTLESGVPSRFSGSGSGTEFTLTISSLQPDDFATYYCQQYNTYWTFGQGTKVEIK
B9 displayed a Ki in assay [1] of 2.8 nM.

B10: X135-A01 (Fab, V domains shown)
VH: EVQLLESGGGLVQPGGSLRLSCAASGFTFSHYIMMWVRQAPGKGLEWVSGIYSSGGITVYADSVKGRFTISRDNSKNTLYLQMNSLRAEDTAVYYCAYRRTGAPRRDAFDIWGQGTMVTVSS
VL: DIQMTQSPSTLSASVGDRVTITCRASQSISSWLAWYQQKPGKAPNLLIYKASTLESGVPSRFSGSGSGTEFTLTISSLQPDDFATYYCQQYNTYWTFGQGTKVEIK
B10 showed a Ki in assay [1] of 248 nM.

B11: M0200-D03 (Fab, V domains shown)
VH: EVQLLESGGGLVQPGGSLRLSCAASGFTFSHYIMMWVRQAPGKGLEWVSGIYSSGGITVYADSVKGRFTISRDNSKNTLYLQMNSLRAEDTAVYYCAYRRIGVPRRDSFDMWGQGTMVTVSS
VL: DIQMTQSPSTLSASVGDRVTITCRASQSISSWLAWYQQKPGKAPNLLIYKASTLESGVPSRFSGSGSGTEFTLTISSLQPDDFATYYCQQYNTYWTFGQGTKVEIK
In assay [1], B11 displayed a Ki of 0.1 nM.

B12: M0199-All (Fab, V domains shown)
VH: EVQLLESGGGLVQPGGSLRLSCAASGFTFSHYIMMWVRQAPGKGLEWVSGIYSSGGITVYADSVKGRFTISRDNSKNTLYLQMNSLRAEDTAVYYCAYRRRGIPRRDAFDIWGQGTMVTVSS
VL: DIQMTQSPSTLSASVGDRVTITCRASQSISSWLAWYQQKPGKAPNLLIYKASTLESGVPSRFSGSGSGTEFTLTISSLQPDDFATYYCQQYNTYWTFGQGTKVEIK
In turn, B12 returned a Ki in assay [1] of 2 nM.

B13: X135-A03 (Fab, V domains shown)
VH: EVQLLESGGGLVQPGGSLRLSCAASGFTFSHYIMMWVRQAPGKGLEWVSGIYSSGGITVYADSVKGRFTISRDNSKNTLYLQMNSLRAEDTAVYYCAYRRTGIPRRDEFDIWGQGTMVTVSS
VL: DIQMTQSPSTLSASVGDRVTITCRASQSISSWLAWYQQKPGKAPNLLIYKASTLESGVPSRFSGSGSGTEFTLTISSLQPDDFATYYCQQYNTYWTFGQGTKVEIK
notes: HC CDR3 variant of M0162-A04, tested as Fab
Take B13: the Ki came out at 1.1 nM in assay [1] and 1.25 nM in assay [3].

B14: M0199-A08 (Fab, V domains shown)
VH: EVQLLESGGGLVQPGGSLRLSCAASGFTFSHYIMMWVRQAPGKGLEWVSGIYSSGGITVYADSVKGRFTISRDNSKNTLYLQMNSLRAEDTAVYYCAYRRIGVPRRDEFDIWGQGTMVTVSS
VL: DIQMTQSPSTLSASVGDRVTITCRASQSISSWLAWYQQKPGKAPNLLIYKASTLESGVPSRFSGSGSGTEFTLTISSLQPDDFATYYCQQYNTYWTFGQGTKVEIK
notes: also called M199-A08
In the case of B14, the Ki turned out to be 0.06 nM in assay [1] and 0.099 nM in assay [4].

B15: X133-B02 (Fab, V domains shown)
VH: EVQLLESGGGLVQPGGSLRLSCAASGFTFSHYIMMWVRQAPGKGLEWVSGIYSSGGITVYADSVKGRFTISRDNSKNTLYLQMNSLRAEDTAVYYCAYRRIGIPRRDAFDIWGQGTMVTVSS
VL: DIQMTQSPSTLSASVGDRVTITCRASQSISSWLAWYQQKPGKAPNLLIYKASTLESGVPSRFSGSGSGTEFTLTISSLQPDDFATYYCQQYNTYWTFGQGTKVEIK
notes: as for B13
On to B15, for which the Ki in assay [1] worked out at 2.2 nM; in assay [5], 2.22 nM.

These data come from patent US20150274841A1 (DYAX, published 2015).
